Target: T1, HLA-B08.01 (human)
T1 construct: As for HLA-A02.01
Assay: pMHC-I complex dissociation at 37 C, 125I-b2m, half-life
Description: (§1) Briefly, synthetic genes encoding biotinylated MHC-I heavy and light chains are expressed in E. coli and purified from inclusion bodies using standard methods. […] These reactions are carried out in streptavidin coated microplates to bind the biotinylated MHC-I heavy chains to the surface and allow measurement of radiolabeled light chain to monitor complex formation. Dissociation is initiated by addition of higher concentrations of unlabeled light-chain and incubation at 37° C. Stability is defined as the length of time in hours it takes for half of the complexes to dissociate, as measured by scintillation counts.

Row | Stability (T1/2 (h)) | Binder
1 | 0 h | MANGSLLNYL (also called BTK, C481S)
2 | 0 h | SLLNYLREM (also called BTK, C481S)

Target: T2, HLA-A02.01 (human)
T2 construct: Purified class I MHC
Assay: pMHC-I dissociation half-life, 125I-b2m
Description: as §1

Row | Binder | Stability (T1/2 (h))
3 | GLVDEQQEV (also called SF3B1, K700E) | 7.4 h
4 | ALNSEALSV (also called TMPRSS2: ERG) | 9.1 h
5 | ALSEHCPTT (also called TP53, CSES) | 27.3 h
6 | GLLAFWDSQV (also called TP53, AAVG) | 14.2 h
7 | NSFEVCVCA (also called TP53, R273C) | 0 h
8 | NSFEVHVCA (also called TP53, R273H) | 0 h
9 | LLAFWDSQV (also called TP53, AAVG) | 12.8 h
10 | GMNQRPILT (also called TP53, R248Q) | 0 h

Now from value to binder:

Row | Stability (T1/2 (h)) | Binder
11 | 0 h | LLGRNSFEVC (also called TP53, R273C)
12 | 2.9 h | ALNSEALSVV (also called TMPRSS2: ERG)
13 | 0.9 h | VVPCEPPEV (also called TP53, Y220C)
14 | 0.8 h | YMCNSSCMGS (also called TP53, G245S)
15 | 0 h | GMNWRPILT (also called TP53, R248W)
16 | 9.8 h | SMLTDSLFL (also called VHL, QCIL)

Target: T3, HLA-A03.01 (human)
T3 construct: Purified class I MHC
Assay: competition with radiolabeled reference peptide, purified MHC I
Description: (§2) Peptides were incubated at varying concentrations with these complexes for 2 days, and the amount of remaining radiolabeled peptide bound to […] was measured using size exclusion gel-filtration.

Row | Binder | IC50
17 | KTFEKKGEK (also called TTK(-1)) | 32.2 nM
18 | RVNTAWKTKK (also called TFAM(+1)) | 2.3 nM
19 | FVMSDTTYK (also called TTK(-1)) | 66.9 nM
20 | RKISNWSLKK (also called SMAP1(-1)) | 131 nM
21 | RVNTAWKTK (also called TFAM(+1)) | 8.6 nM
22 | KISNWSLKKV (also called SMAP1(-1)) | 115 nM

Further lines, results first:

Row | IC50 | Binder
23 | 96.9 nM | HLQLKSCRRK (also called SMAP1(-1))
24 | 5.7 nM | KMRKKYAQK (also called THAP5(-1))
25 | 749 nM | LFVMSDTTYK (also called TTK(-1))
26 | 2340 nM | AMTTSSSQKN (also called TGFBR2(-1))
27 | 9.6 nM | SLKKVPALKK (also called SMAP1(-1))
28 | 332 nM | KRVNTAWKTK (also called TFAM(+1))

Target: T2, HLA-A02.01
Assay: as above
Description: as §2

Row | Binder | IC50
29 | GLVDEQQEV (also called SF3B1, K700E) | 44 nM
30 | ALNSEALSV (also called TMPRSS2: ERG) | 14 nM
31 | ALSEHCPTT (also called TP53, CSES) | 79 nM
32 | GLLAFWDSQV (also called TP53, AAVG) | 10 nM
33 | NSFEVCVCA (also called TP53, R273C) | 2200 nM
34 | NSFEVHVCA (also called TP53, R273H) | 503 nM
35 | LLAFWDSQV (also called TP53, AAVG) | 68 nM
36 | GMNQRPILT (also called TP53, R248Q) | 3030 nM

Results, then the binder that gave them:

Row | IC50 | Binder
37 | 2080 nM | LLGRNSFEVC (also called TP53, R273C)
38 | 81 nM | YMCNSSCMGS (also called TP53, G245S)
39 | 1130 nM | GMNWRPILT (also called TP53, R248W)
40 | 31 nM | SMLTDSLFL (also called VHL, QCIL)
